Results as given in paper PMC10933337, “RhoGDI phosphorylation by PKC promotes its interaction with death receptor p75^NTR to gate axon growth and neuron survival” (EMBO Reports, 2024).

Columns and labels:
p75NTR [1] = target: p75NTR (UniProt Q9Z0W1); assay: p75NTR IP, Flag-RhoGDI immunoblot; settings: reference: wild type RhoGDI; sites S34
p75NTR [2] = target: p75NTR (UniProt Q9Z0W1); assay: p75NTR IP, Flag immunoblot; settings: reference: RhoGDI-59 wild type, PMA; sites S34
[3] = target: T1, human p75^NTR JXT domain (K273-D332) (human, UniProt P08138 273-332); assay: NMR titration; unlabeled p75NTR JXT titrated to 15N-labeled RhoGDI NTD S34D, [1H-15N] HSQC, 28 °C, 10 mM PIPES pH 6.8; 0.3 mM RhoGDI NTD and 1.5 mM p75NTR JXT; settings: both partners purified
T1 construct: juxtamembrane domain of human p75NTR, K273-D332, ~6.6 kDa; Cloned in a pET-32a-derived vector; unlabeled or 15N,13C-labeled for NMR; source: E. coli BL21 (DE3), purified (Ni-NTA, TEV cleavage, gel filtration, MonoS ion exchange)
T1 sequence (looked up): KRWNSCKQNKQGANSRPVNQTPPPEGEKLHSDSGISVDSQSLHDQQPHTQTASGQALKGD

## RhoGDI (from UniProt Q99PT1) S34A
p75NTR [1]
  binding against the reference: weaker

## RhoGDI RhoGDI-59, 59 N-terminal residues (fused to GST) (from UniProt Q99PT1) RhoGDI-59 S34A, PMA
p75NTR [2]
  binding against the reference: lost

B1: human RhoGDI NTD^S34D (A2-A60) (domain or fragment, UniProt P52565 2-60, looked up)
chain: AEQEPTAEQLAQIAAENEEDEHSVNYKPPAQKDIQEIQELDKDDESLRKYKEALLGRVA
notes: N-terminal domain of RhoGDI, A2-A60, ~6.8 kDa, with the phosphorylation-mimetic mutation S34D; Cloned in a pET-32a-derived vector; 15N- or 15N,13C-labeled or unlabeled for NMR; source: E. coli BL21 (DE3), purified (Ni-NTA, TEV cleavage, gel filtration, MonoQ ion exchange)
[3]
  binding result: binds
